Reference: patent US20260098093A1 (HUMMINGBIRD BIOSCIENCE PTE, published 2026)

Columns and labels:
[1] = molecular target: T1, recombinant human VISTA-Fc protein (R&D #7126-B7) (human, UniProt Q9H7M9 33-194); assay: ELISA, VSIG3-Fc on plate-bound human VISTA-Fc
T1 construct: Bought protein; also called Fc-tagged human VISTA; not shown: Fc part of a bought fusion protein
T1 sequence: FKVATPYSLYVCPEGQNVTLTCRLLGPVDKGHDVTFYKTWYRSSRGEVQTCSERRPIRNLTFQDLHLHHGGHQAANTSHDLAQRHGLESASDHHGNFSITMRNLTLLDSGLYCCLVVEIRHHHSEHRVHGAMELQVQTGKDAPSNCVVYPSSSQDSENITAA

HIS-tagged human VISTA [2] = molecular target: T2, HIS-tagged human VISTA (human, UniProt Q9H7M9 33-194); assay: BLI (Octet) epitope binning: human VISTA-HIS on anti-Penta-HIS sensor, antibody at 400 nM (concentration from paragraph 696)
T2 construct: Residues 33-194 are stated only for the protein used in HDXMS (Sino Biological #13482-H08H); also called human VISTA-HIS; not shown: HIS tag
T2 sequence: T1 sequence

B7H1/PDL-1 = B7H1/PDL-1 (human, UniProt Q9NZQ7 19-239, limits assumed); assay: ELISA: plate coated with the named human antigen, 4M2-C12-mIgG2a titrated, absorbance 450 nm
B7H3 = molecular target: T3, B7H3 (human, UniProt Q5ZPR3 29-461, limits assumed); assay: as above
T3 construct: also called CD276
T3 sequence (looked up): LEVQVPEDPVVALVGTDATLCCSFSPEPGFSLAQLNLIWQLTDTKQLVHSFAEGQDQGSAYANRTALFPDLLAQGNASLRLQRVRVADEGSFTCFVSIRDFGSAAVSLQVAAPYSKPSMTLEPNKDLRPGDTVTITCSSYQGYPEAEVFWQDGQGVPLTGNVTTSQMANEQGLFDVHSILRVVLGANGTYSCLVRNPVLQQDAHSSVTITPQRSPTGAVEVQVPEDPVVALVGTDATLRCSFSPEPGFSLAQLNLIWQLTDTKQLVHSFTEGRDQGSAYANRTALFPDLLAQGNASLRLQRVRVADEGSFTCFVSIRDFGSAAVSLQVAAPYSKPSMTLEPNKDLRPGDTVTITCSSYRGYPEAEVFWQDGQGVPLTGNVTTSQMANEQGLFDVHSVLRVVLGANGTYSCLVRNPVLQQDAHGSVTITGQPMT

B7H4 = molecular target: T4, B7H4 (human, UniProt Q7Z7D3 29-258, limits assumed); assay: as above
T4 construct: also called VTCN1
T4 sequence (looked up): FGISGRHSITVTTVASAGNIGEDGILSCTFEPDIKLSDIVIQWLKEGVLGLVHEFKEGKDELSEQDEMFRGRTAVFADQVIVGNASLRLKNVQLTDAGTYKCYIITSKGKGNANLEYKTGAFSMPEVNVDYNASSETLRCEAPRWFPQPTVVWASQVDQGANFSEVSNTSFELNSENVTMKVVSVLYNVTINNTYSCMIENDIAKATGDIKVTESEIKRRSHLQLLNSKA

B7H6 = molecular target: T5, B7H6 (human, UniProt Q68D85 25-262, limits assumed); assay: as above
T5 construct: also called NCR3LG1
T5 sequence (looked up): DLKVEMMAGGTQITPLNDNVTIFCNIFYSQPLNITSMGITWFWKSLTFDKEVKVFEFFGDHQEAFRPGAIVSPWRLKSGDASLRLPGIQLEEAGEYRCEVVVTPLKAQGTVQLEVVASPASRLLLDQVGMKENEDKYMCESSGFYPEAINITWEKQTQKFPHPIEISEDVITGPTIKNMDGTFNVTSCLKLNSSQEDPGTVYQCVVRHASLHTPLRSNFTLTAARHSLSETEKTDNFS

B7H7 = molecular target: T6, B7H7 (human, UniProt Q9UM44 23-344, limits assumed); assay: as above
T6 construct: also called HHLA2
T6 sequence (looked up): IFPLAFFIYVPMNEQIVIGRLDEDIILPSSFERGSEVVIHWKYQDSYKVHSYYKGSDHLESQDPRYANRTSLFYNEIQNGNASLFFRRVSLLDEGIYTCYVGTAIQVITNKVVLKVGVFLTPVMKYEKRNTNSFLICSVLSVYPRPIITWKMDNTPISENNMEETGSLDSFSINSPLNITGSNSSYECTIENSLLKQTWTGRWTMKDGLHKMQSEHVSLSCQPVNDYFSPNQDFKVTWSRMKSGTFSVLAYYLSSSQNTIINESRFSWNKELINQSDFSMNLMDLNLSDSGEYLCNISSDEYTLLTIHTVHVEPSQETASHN

PD-1 = PD-1 (human, UniProt Q15116 25-167, limits assumed); assay: as above
CTLA-4 = molecular target: T7, CTLA-4 (human, UniProt P16410 36-162, limits assumed); assay: as above
T7 sequence (looked up): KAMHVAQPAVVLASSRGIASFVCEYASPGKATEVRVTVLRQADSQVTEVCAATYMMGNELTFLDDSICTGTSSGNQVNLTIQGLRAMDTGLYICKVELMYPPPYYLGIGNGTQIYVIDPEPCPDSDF

HIS-tagged human VISTA [3] = molecular target: T2, HIS-tagged human VISTA; assay: ELISA: plate coated with the named human antigen, 4M2-C12-mIgG2a titrated, absorbance 450 nm; tag of the coated VISTA not stated
[4] = molecular target: T1, recombinant human VISTA-Fc protein (R&D …); assay: competition ELISA: plate-bound human VISTA-Fc, competitor LRIG1.HIS at 1 µg/ml
Protocol: (§1) For inhibition assay, 384-well plates were coated with 5 μg/ml of human VISTA-Fc recombinant protein (R&D #7126-B7) diluted in PBS for 24 hrs at 4° C. […] Post incubation, plates were washed three times with TBST and incubated with anti-HIS HRP (Abcam #ab1187) antibody for 1 hr at room temperature followed by three further washes. Colorimetric reactions were developed using standard protocol as described for ELISA above.

[5] = molecular target: T1, recombinant human VISTA-Fc protein (R&D …); assay: competition ELISA: plate-bound human VISTA-Fc, competitor biotinylated VSIG3-Fc at 24 nM
Protocol: as §1, with “For the” for “For”, “2” for “5”, “streptavidin” for “anti-HIS”, “(R&D #DY998)” for “(Abcam #ab1187)”

B1: recombinant human VSIG3-Fc (Fc fusion, UniProt Q5DX21 23-241, looked up)
chain: LEVSESPGSIQVARGQPAVLPCTFTTSAALINLNVIWMVTPLSNANQPEQVILYQGGQMFDGAPRFHGRVGFTGTMPATNVSIFINNTQLSDTGTYQCLVNNLPDIGGRNIGVTGLTVLVPPSAPHCQIQGSQDIGSDVILLCSSEEGIPRPTYLWEKLDNTLKLPPTATQDQVQGTVTIRNISALSSGLYQCVASNAIGTSTCLLDLQVISPQPRNIG
modifications: biotinylated in the inhibition ELISA (sites not given)
notes: Bought protein; also called VSIG3-Fc (R&D #9229-VS); not shown: Fc part of a bought fusion protein
Question: How did the EC50 [1] turn out when B1 was run?
Answer: 24 nM

B2: IGN175A (antibody, human IgG1, kappa, V domains shown)
VH: QVQLQQSGAELMKPGASVKISCKATGYTFSTHWIEWVKQRPGHGLEWIGEILPGSGSTSYNEKFKGKATFTADTSSNTAYMQLSSLTSEDSAVYYCARWLLYYYAMDYWGQGTSVTVSS
VL: DVLMTQTPLSLPVSLGDQASISCRSSQSIVHSNGNTYLEWYLQKPGQSPKLLIYKLSNRFSGVPDRFSGSGSGTDFTLKISRVEAEDLGVYYCFQGSHFPYTFGGGTKLEIKR
Question: Does B2 bind (HIS-tagged human VISTA [2])?
Answer: binds

B3: 4M2-C12-mIgG2a (antibody, V domains shown)
VH: EVKLVESGPGLVKPSQSLSLTCTVTGYSITSDYAWNWIRQFPGNKLEWMGYITYSGNISYNPSLRSRISITRDTSKNQFFLQLNSVTPEDTATYSCARSLYYPWYFDVWGAGTTVTVSS
VL: DIVITQTPAILSTSPGEKVTMTCRASSSVGYIHWYQQKPGSSPKPWIYATSNLASGVPARFSGSGSGTSNSLTITRVEAEDAATYYCQQWSSYPPITFGGGTKLEVKR
notes: also called V4P mIgG2a
Question: Does B3 bind (B7H1/PDL-1)?
Answer: no binding (tested: about 2e-8 M)

Question: Does B3 bind (B7H3)?
Answer: no binding (tested: about 2e-8 M)

Question: Does B3 bind (B7H4)?
Answer: no binding (tested: about 2e-8 M)

Question: Does B3 bind (B7H6)?
Answer: no binding (tested: about 2e-8 M)

Question: Does B3 bind (B7H7)?
Answer: no binding (tested: about 2e-8 M)

Question: Does B3 bind (PD-1)?
Answer: no binding (tested: about 2e-8 M)

Question: Does B3 bind (CTLA-4)?
Answer: no binding (tested: about 2e-8 M)

Question: And the “EC50 (read off the curve)” value (HIS-tagged human VISTA [3])?
Answer: ~0.2 nM

B4: V4-C26 hIgG4 (antibody)
heavy: not shown
light: EIVLTQSPATLSLSPGERATLSCRASSSVGYIHWYQQKPGQAPRPIIYTTSNRATGIPARFSGSGSGTDNTLTISSLEPEDSAVYYCQQWSSYPPITFGGGTKLEVKRTVAAPSVFIFPPSDEQLKSGTASVVCLLNNFYPREAKVQWKVDNALQSGNSQESVTEQDSKDSTYSLSSTLTLSKADYEKHKVYACEVTHQGLSSPVTKSFNRGEC
notes: Human IgG4 (S228P) / kappa; APC-conjugated in the flow cytometry assays; also called HMBD-002; V4-C26 hIgG4(S228P)
Question: With B4 as the binder, how does the IC50 [4] read?
Answer: 3.4 nM

Question: And the IC50 [5]?
Answer: 0.673 nM
